According to patent US20100099610A1 (published 2010):

Tests used:
hGHQ141N = hGHQ141N (human, UniProt P01241 27-217); assay: cell-based or functional assay
hGHQ40N = hGHQ40N (human, UniProt P01241 27-217); assay: cell-based or functional assay
hGHQ40N, sequence (P01241 27-217 Q66N): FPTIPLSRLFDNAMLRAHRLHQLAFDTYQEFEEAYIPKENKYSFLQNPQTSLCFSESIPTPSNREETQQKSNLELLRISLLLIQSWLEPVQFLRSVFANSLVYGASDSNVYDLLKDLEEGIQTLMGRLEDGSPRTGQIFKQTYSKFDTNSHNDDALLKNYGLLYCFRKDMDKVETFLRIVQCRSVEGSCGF

hGHQ141N, sequence (P01241 27-217 Q167N): as the sequence (P01241 27-217 Q66N) above, with N40Q, Q141N counted along it

Binder	RSA Q40 (hGHQ141N)	RSA Q141 (hGHQ40N)
S. ladakanum GlyPro-TGase mutant S250M (enzyme) GPDSDERVTPPAEPLDRMPDPYRPSYGRAETIVNNYIRKWQQVYSHRDGRKQQMTEEQREWLSYGCVGVTWVNSGQYPTNRLAFAFFDEDKYKNELKNGRPRSGETRAEFEGRVAKDSFDEAKGFQRARDVASVMNKALENAHDEGAYLDNLKKELANGNDALRNEDARSPFYSALRNTPSFKDRNGGNHDPSKMKAVIYSKHFWSGQDRSGSSDKRKYGDPEAFRPDRGTGLVDMSRDRNIPRSPTSPGEMFVNFDYGWFGAQTEADADKTVWTHGNHYHAPNGSLGAMHVYESKFRNWSDGYSDFDRGAYVVTFVPKSWNTAPDKVKQGWP	2.22 relative to wild type TGase	3.25 relative to wild type TGase
S. ladakanum GlyPro-TGase mutant S250R (enzyme) GPDSDERVTPPAEPLDRMPDPYRPSYGRAETIVNNYIRKWQQVYSHRDGRKQQMTEEQREWLSYGCVGVTWVNSGQYPTNRLAFAFFDEDKYKNELKNGRPRSGETRAEFEGRVAKDSFDEAKGFQRARDVASVMNKALENAHDEGAYLDNLKKELANGNDALRNEDARSPFYSALRNTPSFKDRNGGNHDPSKMKAVIYSKHFWSGQDRSGSSDKRKYGDPEAFRPDRGTGLVDMSRDRNIPRSPTSPGERFVNFDYGWFGAQTEADADKTVWTHGNHYHAPNGSLGAMHVYESKFRNWSDGYSDFDRGAYVVTFVPKSWNTAPDKVKQGWP	0.59 relative to wild type TGase	0.83 relative to wild type TGase
S. ladakanum GlyPro-TGase mutant S250V (enzyme) GPDSDERVTPPAEPLDRMPDPYRPSYGRAETIVNNYIRKWQQVYSHRDGRKQQMTEEQREWLSYGCVGVTWVNSGQYPTNRLAFAFFDEDKYKNELKNGRPRSGETRAEFEGRVAKDSFDEAKGFQRARDVASVMNKALENAHDEGAYLDNLKKELANGNDALRNEDARSPFYSALRNTPSFKDRNGGNHDPSKMKAVIYSKHFWSGQDRSGSSDKRKYGDPEAFRPDRGTGLVDMSRDRNIPRSPTSPGEVFVNFDYGWFGAQTEADADKTVWTHGNHYHAPNGSLGAMHVYESKFRNWSDGYSDFDRGAYVVTFVPKSWNTAPDKVKQGWP	0.51 relative to wild type TGase	0.96 relative to wild type TGase
S. ladakanum GlyPro-TGase mutant S250Y (enzyme) GPDSDERVTPPAEPLDRMPDPYRPSYGRAETIVNNYIRKWQQVYSHRDGRKQQMTEEQREWLSYGCVGVTWVNSGQYPTNRLAFAFFDEDKYKNELKNGRPRSGETRAEFEGRVAKDSFDEAKGFQRARDVASVMNKALENAHDEGAYLDNLKKELANGNDALRNEDARSPFYSALRNTPSFKDRNGGNHDPSKMKAVIYSKHFWSGQDRSGSSDKRKYGDPEAFRPDRGTGLVDMSRDRNIPRSPTSPGEYFVNFDYGWFGAQTEADADKTVWTHGNHYHAPNGSLGAMHVYESKFRNWSDGYSDFDRGAYVVTFVPKSWNTAPDKVKQGWP	0.95 relative to wild type TGase	1.71 relative to wild type TGase
S. ladakanum GlyPro-TGase mutant S250A (enzyme) GPDSDERVTPPAEPLDRMPDPYRPSYGRAETIVNNYIRKWQQVYSHRDGRKQQMTEEQREWLSYGCVGVTWVNSGQYPTNRLAFAFFDEDKYKNELKNGRPRSGETRAEFEGRVAKDSFDEAKGFQRARDVASVMNKALENAHDEGAYLDNLKKELANGNDALRNEDARSPFYSALRNTPSFKDRNGGNHDPSKMKAVIYSKHFWSGQDRSGSSDKRKYGDPEAFRPDRGTGLVDMSRDRNIPRSPTSPGEAFVNFDYGWFGAQTEADADKTVWTHGNHYHAPNGSLGAMHVYESKFRNWSDGYSDFDRGAYVVTFVPKSWNTAPDKVKQGWP	2.57 relative to wild type TGase	4.23 relative to wild type TGase
S. ladakanum GlyPro-TGase mutant S250P (enzyme) GPDSDERVTPPAEPLDRMPDPYRPSYGRAETIVNNYIRKWQQVYSHRDGRKQQMTEEQREWLSYGCVGVTWVNSGQYPTNRLAFAFFDEDKYKNELKNGRPRSGETRAEFEGRVAKDSFDEAKGFQRARDVASVMNKALENAHDEGAYLDNLKKELANGNDALRNEDARSPFYSALRNTPSFKDRNGGNHDPSKMKAVIYSKHFWSGQDRSGSSDKRKYGDPEAFRPDRGTGLVDMSRDRNIPRSPTSPGEPFVNFDYGWFGAQTEADADKTVWTHGNHYHAPNGSLGAMHVYESKFRNWSDGYSDFDRGAYVVTFVPKSWNTAPDKVKQGWP	1.86 relative to wild type TGase	3.99 relative to wild type TGase
S. ladakanum GlyPro-TGase mutant S250W (enzyme) GPDSDERVTPPAEPLDRMPDPYRPSYGRAETIVNNYIRKWQQVYSHRDGRKQQMTEEQREWLSYGCVGVTWVNSGQYPTNRLAFAFFDEDKYKNELKNGRPRSGETRAEFEGRVAKDSFDEAKGFQRARDVASVMNKALENAHDEGAYLDNLKKELANGNDALRNEDARSPFYSALRNTPSFKDRNGGNHDPSKMKAVIYSKHFWSGQDRSGSSDKRKYGDPEAFRPDRGTGLVDMSRDRNIPRSPTSPGEWFVNFDYGWFGAQTEADADKTVWTHGNHYHAPNGSLGAMHVYESKFRNWSDGYSDFDRGAYVVTFVPKSWNTAPDKVKQGWP	1.3 relative to wild type TGase	2.43 relative to wild type TGase
S. ladakanum GlyPro-TGase mutant S250Q (enzyme) GPDSDERVTPPAEPLDRMPDPYRPSYGRAETIVNNYIRKWQQVYSHRDGRKQQMTEEQREWLSYGCVGVTWVNSGQYPTNRLAFAFFDEDKYKNELKNGRPRSGETRAEFEGRVAKDSFDEAKGFQRARDVASVMNKALENAHDEGAYLDNLKKELANGNDALRNEDARSPFYSALRNTPSFKDRNGGNHDPSKMKAVIYSKHFWSGQDRSGSSDKRKYGDPEAFRPDRGTGLVDMSRDRNIPRSPTSPGEQFVNFDYGWFGAQTEADADKTVWTHGNHYHAPNGSLGAMHVYESKFRNWSDGYSDFDRGAYVVTFVPKSWNTAPDKVKQGWP	1.62 relative to wild type TGase	1.92 relative to wild type TGase

Continued, values first:

RSA Q40 (hGHQ141N)	RSA Q141 (hGHQ40N)	Binder
0.1 relative to wild type TGase	0.18 relative to wild type TGase	S. ladakanum GlyPro-TGase mutant Y75M (enzyme) GPDSDERVTPPAEPLDRMPDPYRPSYGRAETIVNNYIRKWQQVYSHRDGRKQQMTEEQREWLSYGCVGVTWVNSGQMPTNRLAFAFFDEDKYKNELKNGRPRSGETRAEFEGRVAKDSFDEAKGFQRARDVASVMNKALENAHDEGAYLDNLKKELANGNDALRNEDARSPFYSALRNTPSFKDRNGGNHDPSKMKAVIYSKHFWSGQDRSGSSDKRKYGDPEAFRPDRGTGLVDMSRDRNIPRSPTSPGESFVNFDYGWFGAQTEADADKTVWTHGNHYHAPNGSLGAMHVYESKFRNWSDGYSDFDRGAYVVTFVPKSWNTAPDKVKQGWP
0.06 relative to wild type TGase	0.18 relative to wild type TGase	S. ladakanum GlyPro-TGase mutant Y75C (enzyme) GPDSDERVTPPAEPLDRMPDPYRPSYGRAETIVNNYIRKWQQVYSHRDGRKQQMTEEQREWLSYGCVGVTWVNSGQCPTNRLAFAFFDEDKYKNELKNGRPRSGETRAEFEGRVAKDSFDEAKGFQRARDVASVMNKALENAHDEGAYLDNLKKELANGNDALRNEDARSPFYSALRNTPSFKDRNGGNHDPSKMKAVIYSKHFWSGQDRSGSSDKRKYGDPEAFRPDRGTGLVDMSRDRNIPRSPTSPGESFVNFDYGWFGAQTEADADKTVWTHGNHYHAPNGSLGAMHVYESKFRNWSDGYSDFDRGAYVVTFVPKSWNTAPDKVKQGWP
0.07 relative to wild type TGase	0.2 relative to wild type TGase	S. ladakanum GlyPro-TGase mutant Y62L (enzyme) GPDSDERVTPPAEPLDRMPDPYRPSYGRAETIVNNYIRKWQQVYSHRDGRKQQMTEEQREWLSLGCVGVTWVNSGQYPTNRLAFAFFDEDKYKNELKNGRPRSGETRAEFEGRVAKDSFDEAKGFQRARDVASVMNKALENAHDEGAYLDNLKKELANGNDALRNEDARSPFYSALRNTPSFKDRNGGNHDPSKMKAVIYSKHFWSGQDRSGSSDKRKYGDPEAFRPDRGTGLVDMSRDRNIPRSPTSPGESFVNFDYGWFGAQTEADADKTVWTHGNHYHAPNGSLGAMHVYESKFRNWSDGYSDFDRGAYVVTFVPKSWNTAPDKVKQGWP
0.1 relative to wild type TGase	0.19 relative to wild type TGase	S. ladakanum GlyPro-TGase mutant Y62T (enzyme) GPDSDERVTPPAEPLDRMPDPYRPSYGRAETIVNNYIRKWQQVYSHRDGRKQQMTEEQREWLSTGCVGVTWVNSGQYPTNRLAFAFFDEDKYKNELKNGRPRSGETRAEFEGRVAKDSFDEAKGFQRARDVASVMNKALENAHDEGAYLDNLKKELANGNDALRNEDARSPFYSALRNTPSFKDRNGGNHDPSKMKAVIYSKHFWSGQDRSGSSDKRKYGDPEAFRPDRGTGLVDMSRDRNIPRSPTSPGESFVNFDYGWFGAQTEADADKTVWTHGNHYHAPNGSLGAMHVYESKFRNWSDGYSDFDRGAYVVTFVPKSWNTAPDKVKQGWP
0.1 relative to wild type TGase	0.28 relative to wild type TGase	S. ladakanum GlyPro-TGase mutant Y62M (enzyme) GPDSDERVTPPAEPLDRMPDPYRPSYGRAETIVNNYIRKWQQVYSHRDGRKQQMTEEQREWLSMGCVGVTWVNSGQYPTNRLAFAFFDEDKYKNELKNGRPRSGETRAEFEGRVAKDSFDEAKGFQRARDVASVMNKALENAHDEGAYLDNLKKELANGNDALRNEDARSPFYSALRNTPSFKDRNGGNHDPSKMKAVIYSKHFWSGQDRSGSSDKRKYGDPEAFRPDRGTGLVDMSRDRNIPRSPTSPGESFVNFDYGWFGAQTEADADKTVWTHGNHYHAPNGSLGAMHVYESKFRNWSDGYSDFDRGAYVVTFVPKSWNTAPDKVKQGWP
0.05 relative to wild type TGase	0.18 relative to wild type TGase	S. ladakanum GlyPro-TGase mutant Y62N (enzyme) GPDSDERVTPPAEPLDRMPDPYRPSYGRAETIVNNYIRKWQQVYSHRDGRKQQMTEEQREWLSNGCVGVTWVNSGQYPTNRLAFAFFDEDKYKNELKNGRPRSGETRAEFEGRVAKDSFDEAKGFQRARDVASVMNKALENAHDEGAYLDNLKKELANGNDALRNEDARSPFYSALRNTPSFKDRNGGNHDPSKMKAVIYSKHFWSGQDRSGSSDKRKYGDPEAFRPDRGTGLVDMSRDRNIPRSPTSPGESFVNFDYGWFGAQTEADADKTVWTHGNHYHAPNGSLGAMHVYESKFRNWSDGYSDFDRGAYVVTFVPKSWNTAPDKVKQGWP
0.06 relative to wild type TGase	0.18 relative to wild type TGase	S. ladakanum GlyPro-TGase mutant Y75L (enzyme) GPDSDERVTPPAEPLDRMPDPYRPSYGRAETIVNNYIRKWQQVYSHRDGRKQQMTEEQREWLSYGCVGVTWVNSGQLPTNRLAFAFFDEDKYKNELKNGRPRSGETRAEFEGRVAKDSFDEAKGFQRARDVASVMNKALENAHDEGAYLDNLKKELANGNDALRNEDARSPFYSALRNTPSFKDRNGGNHDPSKMKAVIYSKHFWSGQDRSGSSDKRKYGDPEAFRPDRGTGLVDMSRDRNIPRSPTSPGESFVNFDYGWFGAQTEADADKTVWTHGNHYHAPNGSLGAMHVYESKFRNWSDGYSDFDRGAYVVTFVPKSWNTAPDKVKQGWP
